In the DeepSol protein solubility set:

Experiment: soluble on expression in E. coli; label from the status in PepcDB or PDB records

| Sequence | soluble on expression in E. coli |
| --- | --- |
| GHMPNIPPPFTAPYAPDDAEIAARLLPASHLSPPQEARIHRTATRLIEAIRKRDDRLGGVEDMLREFALSTKEGLALMVLAEALLRVPDARTADQFIEDKLGEGDFIHHETKSTAFLVNASAWALGLSARVIQPGETPDGTIGRLVKRLGAPAVRTATRQAMRLMGNHFVLGETIEQALERGKPRSGQKTRYSFDMLGEGARTAADARRYFDAYASAIETIGKAAGNHALPDRPGISVKLSALHPRFEAISRARVMVELVPQLLDLAQRAKAHDLNFTVDAEEADRLELSLDVIAATLADPSLKGWDGFGLAIQAYQKRASAVIDYVDALARAHDRKLMVRLVKGAYWDTEIKRAQERGLDGYPVFTRKAMTDLNYVACASKLLALRPRIFPQFATHNALTVATVLEMAEGSSGFEFQRLHGMGEALYEQLAKDHADIAYRTYAPVGSHRDLLAYLVRRLLENGANSSFVAQAADYRVPVPALLQRPADAIVRPQAAAHPRIPLPCDLFAPERRNSRGVEFGARTALDQLLTDVKAETGDLKPIADATPDQAHAAVAAARAGFAGWSRTPAGIRAAALEQAAHLLESRSAHFIALLQREGGKTLDDALSELREAADFCRYYAAQGRKLFGSETAMPGPTGESNALTMRGRGVFVAISPWNFPLAIFLGQVTAALMAGNSVVAKPAEQTPRIAREAVALLHEAGIPKSALYLVTGDGRIGAALTAHPDIAGVVFTGSTEVARSINRALAAKDGPIVPLIAETGGINAMIADATALPEQVADDVVTSAFRSAGQRCSALRLLFVQEDVADRMIEMVAGAARELKIGDPSDVATHVGPVIDVEAKQRLDAHIARMKTEARLHFAGPAPEGCFVAPHIFELTEAGQLTEEVFGPILHVVRYRPENLERVLRAIERTGYGLTLGVHSRIDDSIEAIIDRVQVGNIYVNRNMIGAVVGVQPFGGNGLSGTGPKAGGPHYLARFATEQTVTINTAAAGGNAALLAGEE | soluble |
| GHMSRRYWQLDVFAERPLTGNGLAVFDDASALDDAAMQAWTRELRQFESIFLLPGDDPRAFRARIFTLEEELPFAGHPLLGAAALLHHLRGGDNEQHWTLHLASKSVALRSVRAGSGFYAEMDQGRAEFGATPDAGTCRWFAEAFSLSANDLSGHPPRVVSTGLPYLLLPVTAEALGRARQVNDLQEALDKLGAAFVYLLDVDGREGRTWDNLGLVEDVATGSAAGPVAAYLVEYGLAARGEPFVLHQGRFLERPSRLDVQVATDGSVRVGGHVQLLARAELLTSAGS | soluble |
| GHMTKLNQESTAPKVLFTGVVDARGERAVLALGGSLAGSAAEASHLVTDRIRRTVKFLCALGRGIPILSLDWLHQSRKAGFFLPPDEYVVTDPEQEKNFGFSLQDALSRARERRLLEGYEIYVTPGVQPPPPQMGEIISCCGGTYLPSMPRSYKPQRVVITCPQDFPHCSIPLRVGLPLLSPEFLLTGVLKQEAKPEAFVLSPLEMSST | soluble |
| GHVSDRPAGRMPLTVHRNVGRWLSEILHASIRDTGVSSRIEFVRRTLHGWVREEYSETELPNAVYRNLYFPVLDAQPAHAGSGKIETISECDRLKNLVRNVTDTLVENYPQGLESEALLIALDGVKLELARIRKDIEMYGDPRKR | soluble |
| GIDPFTNEAASAAGVVGGMVDSITQAINQLDEGPMGDPEGSFVDYQTTMVRTAKAIAVTVQEMVTKSNTSPEELGPLANQLTSDYGRLASQAKPAAVAAENEEIGAHIKHRVQELGHGCSALVTKAGALQCSPSDVYTKKELIECARRVSEKVSHVLAALQAGNR | soluble |
| GITPKYTATAKVYMVSASKNSVVDLADLSIGTSLSEDYAELLHVRPIIEAINEENDLGYTYEQLNGMIDISTVEDTRILKISATSIKPEEAKTIANALAEKAVTEIPKLMGTSSPNIAERAITPKGKSSPSLKKN | soluble |
| GITPRFSITQDEEFIFLKIFISNIRFSAVGLEIIIQENMIIFHLSPYYLRLRFPHELIDDERSTAQYDSKDECINVKVAKLNKNEYFEDLDLPTKLLARQGDLAGADALTENTDAKKTQKPLIQEVETDGVSNN | soluble |
| GKDFSYWVKMTTGYSDNKIKEAGFQATPGFDDIVRGERSDRGVWGYECIGMFRTYQDIEEYFAVNKITSYLGNTKDNIHPGMLIYRDVRGQRNADGTYGEADGVIDQNDYVKISN | not soluble |
| GKREPDLTGGFSTYLKYKNITFNALFSFSFGNKMRLNDLYESSGQRLPYPDQNMSSEFVNRWREPGDEDRTIIPVLSDKSLQINDKDVTYRIADNGWDMYNKSDIRVVSGSFLRCRSMSIRYDFKREWLKPVYLKGASVSFDMGNVFVIKDKALKGRDPEQIGFGSRSIPPQRSYSLRFNITL | not soluble |
| GKRKLATISTKGKVKDLTDTLVGSSIGRPYISGGFTASSEGYMAFTQGSSSRPADVAVINTRKKLVKLTQLNEDLLAHKNLGKVTEINYKSSFDDEPIQGWYVTPPNFDPKKKYPLILEIHGGPHLAYGPHFSAELQRFAAQGYVVFYDNHRGSSSYGERFAMLLKYKYSSKEDFADHNSGVDAMLGLGFIDEGNLFIAGGSAGGIATAYAIGLTDRFSAAVVVKPVINWLSKVLTADSGLGQIPTQFPGMPWEHVEHYWKRSPMSLVGNVTTPTMLMTGEEDLRTPMAQTEQFYQALKLRKIDTVLVKVPGSPHGIAGKPSRMITKIEHTLAWFEKYKT | not soluble |
| GKRSHSMKRNPNAPVTKAGWLFKQASSGVKQWNKRWFVLVDRCLFYYKDEKEESILGSIPLLSFRVAAVQPSDNISRKHTFKAEHAGVRTYFFSAESPEEQEAWIQAMGEAARVQ | soluble |
| GKSTTLFSRHTKAIVWGMQTRAVQGMLDFDYVCSRDEPSVAAMVYPFTGDHKQKFYWGHKEILIPVFKNMADAMRKHPEVDVLINFASLRSAYDSTMETMNYAQIRTIAIIAEGIPEALTRKLIKKADQKGVTIIGPATVGGIKPGCFKIGNTGGMLDNILASKLYRPGSVAYVSRSGGMSNELNNIISRTTDGVYEGVAIGGDRYPGSTFMDHVLRYQDTPGVKMIVVLGEIGGTEEYKICRGIKEGRLTKPIVCWCIGTCATMFSSEVQFGHAGACANQASETAVAKNQALKEAGVFVPRSFDELGEIIQSVYEDLVANGVIVPAQEVPPPTV | soluble |
| GLLMEGDEPAGGKWNFDTENRKPAAPDLLRPRPLRFEPDAEVRAVLDLVEARFPRHFGRLRPFHWATDRAEALRALDHFIRESLPRFGDEQDAMLADDPFLSHALLSSSMNLGLLGPMEVCRRAETEWREGRAPLNAVEGFIRQILGWREYVRGIWTLSGPDYI | not soluble |
